Laboratory results from patent EP4714972A1.
Substitutions are numbered along the chain they refer to. Values belong to the binder of their own block, whether it stands above or below them.

Assays:
[1] = target: CD38 antigen (human-derived CD38 antigen protein) (human) (UniProt P28907); assay: phage ELISA on coated CD38 antigen; control well (PVA) OD 0.13
[2] = target: CD38 antigen (human-derived CD38 antigen protein) (human) (UniProt P28907); assay: phage ELISA on coated CD38 antigen; control well (PVA) OD 0.05
[3] = target: CD38 antigen (human-derived CD38 antigen protein) (human) (UniProt P28907); assay: phage ELISA on coated CD38 antigen; control well (PVA) OD 0.18
[4] = target: CD38 antigen (human-derived CD38 antigen protein) (human) (UniProt P28907); assay: phage ELISA on coated CD38 antigen; control well (PVA) OD 0.04

B2: B3 alpaca antibody (anti-CD38 single-domain antibody) (VHH)
VHH: QVQLVESGGGLVQAGGSLRLACTASGNIFASQVMNWYRQAPGSPRELVATITPGGRTTYADSAKGRFTVATDNAKATAYLQLTSLTPEDTGVYYCHVRLFPATDYWGQGTQVTVSS
OD value of the antigen well (Pro) [2]: 0.15 OD

B3: B2 alpaca antibody (anti-CD38 single-domain antibody) (VHH)
VHH: QVQLVESGGGLVQPGGSLTLSCRASGFTLDYYAIGWFRQAPGKEREAIACIDITGFHTNYGDSVSGRFTISRDNAGTTVYLQMNSLEAEDTGIYYCAPARYAACSALDVKLSFTSWGQGTQVTVSS
OD value of the antigen well (Pro) [3]: 1.07 OD

B5: B1 alpaca antibody (anti-CD38 single-domain antibody) (VHH)
VHH: QVQLVESGGGEVQPGGSLRLSCTASGFRLDYYAIGWFRRAPGKEREGIACIDITGIHTNYGDSVMGRFTISRDDRAVYLQMNNLEAGDTAIYYCAPARFSACSALDVKLSFTSWGQGTQVTVSS
OD value of the antigen well (Pro) [3]: 0.65 OD

Continued, values first:

OD value of the antigen well (Pro) [1]: 0.89 OD
B1: B5 alpaca antibody (anti-CD38 single-domain antibody) (VHH)
VHH: QVQLVESGGGLVQPGGSLRLSCTASGFRLDYYAIGWFRQAPGKEREAISCIDITGMHTNYGDSVMGRFTISRDDAKRTVYLQMNSLEAEDTGIYYCAPAQYAACSALGVKVSFTSWGQGTQVTVSP

OD value of the antigen well (Pro) [4]: 1.77 OD
B4: B8 alpaca antibody (anti-CD38 single-domain antibody) (VHH)
VHH: B3 VHH with T19R, R23T, T28R
